2 proteins from patent publication US20240124528 can be followed below.

For data set [1], the target named is T1, IL-17RB ΔV403˜S416 (Del-3), HA-tagged.
T1 chain: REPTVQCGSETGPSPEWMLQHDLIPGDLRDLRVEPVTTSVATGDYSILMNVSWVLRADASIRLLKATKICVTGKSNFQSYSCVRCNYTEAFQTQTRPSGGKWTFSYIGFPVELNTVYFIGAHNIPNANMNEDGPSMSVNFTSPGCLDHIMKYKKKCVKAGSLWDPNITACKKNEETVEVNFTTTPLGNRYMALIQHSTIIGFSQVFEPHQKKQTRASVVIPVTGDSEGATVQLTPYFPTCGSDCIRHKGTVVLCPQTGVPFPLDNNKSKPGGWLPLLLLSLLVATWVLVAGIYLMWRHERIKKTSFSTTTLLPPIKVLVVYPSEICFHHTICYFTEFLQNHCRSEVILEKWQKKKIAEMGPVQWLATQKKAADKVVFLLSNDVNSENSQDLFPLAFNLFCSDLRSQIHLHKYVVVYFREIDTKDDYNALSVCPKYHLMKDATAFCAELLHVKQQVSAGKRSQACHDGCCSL

Data set [2] addresses T2, interleukin-17 receptor B (IL-17RB), human, endogenous in pancreatic cancer cells.
T2 chain: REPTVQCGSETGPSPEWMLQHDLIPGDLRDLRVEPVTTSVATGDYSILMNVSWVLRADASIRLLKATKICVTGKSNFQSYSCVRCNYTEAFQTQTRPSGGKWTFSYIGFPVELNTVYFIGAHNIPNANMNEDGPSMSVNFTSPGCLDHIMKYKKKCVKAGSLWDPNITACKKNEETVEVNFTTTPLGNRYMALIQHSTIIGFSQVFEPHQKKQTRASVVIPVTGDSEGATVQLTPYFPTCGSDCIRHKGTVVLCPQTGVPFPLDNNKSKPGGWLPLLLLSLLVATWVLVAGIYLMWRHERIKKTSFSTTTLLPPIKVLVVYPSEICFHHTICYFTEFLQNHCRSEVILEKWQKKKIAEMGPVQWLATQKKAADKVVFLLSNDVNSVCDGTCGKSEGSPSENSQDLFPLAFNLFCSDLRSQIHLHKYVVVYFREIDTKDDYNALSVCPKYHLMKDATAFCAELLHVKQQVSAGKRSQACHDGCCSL

Data set [3] has as its target T3, IL-17RB-Flag (Flag-tagged IL-17RB, wild type).
T3 chain: T2 chain

B1: mixed-lineage kinase 4 (MLK4), endogenous (protein)
chain: MALRGAAGATDTPVSSAGGAPGGSASSSSTSSGGSASAGAGLWAALYDYEARGEDELSLRRGQLVEVLSQDAAVSGDEGWWAGQVQRRLGIFPANYVAPCRPAASPAPPPSRPSSPVHVAFERLELKELIGAGGFGQVYRATWQGQEVAVKAARQDPEQDAAAAAESVRREARLFAMLRHPNIIELRGVCLQQPHLCLVLEFARGGALNRALAAANAAPDPRAPGPRRARRIPPHVLVNWAVQIARGMLYLHEEAFVPILHRDLKSSNILLLEKIEHDDICNKTLKITDFGLAREWHRTTKMSTAGTYAWMAPEVIKSSLFSKGSDIWSYGVLLWELLTGEVPYRGIDGLAVAYGVAVNKLTLPIPSTCPEPFAKLMKECWQQDPHIRPSFALILEQLTAIEGAVMTEMPQESFHSMQDDWKLEIQQMFDELRTKEKELRSREEELTRAALQQKSQEELLKRREQQLAEREIDVLERELNILIFQLNQEKPKVKKRKGKFKRSRLKLKDGHRISLPSDFQHKITVQASPNLDKRRSLNSSSSSPPSSPTMMPRLRAIQLTSDESNKTWGRNTVFRQEEFEDVKRNFKKKGCTWGPNSIQMKDRTDCKERIRPLSDGNSPWSTILIKNQKTMPLASLFVDQPGSCEEPKLSPDGLEHRKPKQIKLPSQAYIDLPLGKDAQRENPAEAESWEEAASANAATVSIEMTPTNSLSRSPQRKKTESALYGCTVLLASVALGLDLRELHKAQAAEEPLPKEEKKKREGIFQRASKSRRSASPPTSLPSTCGEASSPPSLPLSSALGILSTPSFSTKCLLQMDSEDPLVDSAPVTCDSEMLTPDFCPTAPGSGREPALMPRLDTDCSVSRNLPSSFLQQTCGNVPYCASSKHRPSHHRRTMSDGNPTPTGATIISATGASALPLCPSPAPHSHLPREVSPKKHSTVHIVPQRRPASLRSRSDLPQAYPQTAVSQLAQTACVVGRPGPHPTQFLAAKERTKSHVPSLLDADVEGQSRDYTVPLCRMRSKTSRPSIYELEKEFLS
Take B1: in data set [1], the “Y447 phosphorylation of IL-17RB (immunoblot with anti-P-Y447, FIG. 5D)” value is “Del-3 failed to bind to MLK4 and phosphorylate Y447”. In data set [2], the “IL-17RB phosphorylation at Y447 (immunoblot after MLK4 knockdown or knockout, FIG. 5A)” value is “either knockdown (left) or knockout (right) of MLK4 nearly completely abolished IL-17RB phosphorylation at Y447”.

B2: HA-TRIM56 (TRIM56-HA, HA-tagged tripartite-motif 56) (protein)
chain: MVSHGSSPSLLEALSSDFLACKICLEQLRAPKTLPCLHTYCQDCLAQLADGGRVRCPECRETVPVPPEGVASFKTNFFVNGLLDLVKARACGDLRAGKPACALCPLVGGTSTGGPATARCLDCADDLCQACADGHRCTRQTHTHRVVDLVGYRAGWYDEEARERQAAQCPQHPGEALRFLCQPCSQLLCRECRLDPHLDHPCLPLAEAVRARRPGLEGLLAGVDNNLVELEAARRVEKEALARLREQAARVGTQVEEAAEGVLRALLAQKQEVLGQLRAHVEAAEEAARERLAELEGREQVARAAAAFARRVLSLGREAEILSLEGAIAQRLRQLQGCPWAPGPAPCLLPQLELHPGLLDKNCHLLRLSFEEQQPQKDGGKDGAGTQGGEESQSRREDEPKTERQGGVQPQAGDGAQTPKEEKAQTTREEGAQTLEEDRAQTPHEDGGPQPHRGGRPNKKKKFKGRLKSISREPSPALGPNLDGSGLLPRPIFYCSFPTRMPGDKRSPRITGLCPFGPREILVADEQNRALKRFSLNGDYKGTVPVPEGCSPCSVAALQSAVAFSASARLYLINPNGEVQWRRALSLSQASHAVAALPSGDRVAVSVAGHVEVYNMEGSLATRFIPGGKASRGLRALVFLTTSPQGHFVGSDWQQNSVVICDGLGQVVGEYKGPGLHGCQPGSVSVDKKGYIFLTLREVNKVVILDPKGSLLGDFLTAYHGLEKPRVTTMVDGRYLVVSLSNGTIHIFRVRSPDS
B2: the “in vitro ubiquitination assay with recombinant E1, E2 and ubiquitin (FIG. 18D)” value in data set [3] is on record as “purified TRIM56 could ubiquitinate IL-17RB at K470 in vitro”.
